Target: the molecule itself
Test: self-association; nonreducing SDS gels

Row | Protein | binding result
1 | huOPG [22-401] (receptor, Recombinant polypeptide from CHO cells) ETFPPKYLHYDEETSHQLLCDKCPPGTYLKQHCTAKWKSVCAPCPDHYYTDSWHTSDECLYCSPVCKELQYVKQECNRTHNRVCECKEGRYLEIEFCLKHRSCPPGFGVVQAGTPERNTVCKRCPDGFFSNETSSKAPCRKHTNCSVFGLLLTQKGNATHDNICSGNSESTQKCGIDVTLCEEAFFRFAVPTKFTPNWLSVLVDNLPGTKVNAESVERIKRQHSSQEQTFQLLKLWKHQNKAQDIVKKIIQDIDLCENSVQRHIGHANLTFEQLRSLMESLPGKKVGAEDIEKTIKACKPSDQILKLLSLWRIKNGDQDTLKGLMHALKHSKTYHFPKTVTQSLKKTIRFLHSFTMYKLYQKLFLEMIGNQVQSVKISCL | binds
2 | Rat OPG [22-401] produced in transgenic mice (receptor, Expressed from the rat cDNA under a hepatocyte control element in transgenic mice; Analysed in liver extracts and serum; also called HE-OPG transgene product) ETFPPKYLHYDPETGRQLLCDKCAPGTYLKQHCTVRRKTLCVPCPDYSYTDSWHTSDECVYCSPVCKELQTVKQECNRTHNRVCECEEGRYLELEFCLKHRSCPPGLGVLQAGTPERNTVCKRCPDGFFSGETSSKAPCRKHTNCSSLGLLLIQKGNATHDNVCSGNREATQNCEIDVTLCEEAFFRFAVPTKIIPNWLSVLVDSLPGTKVNAESVERIKRRHSSQEQTFQLLKLWKHQNRDQEMVKKIIQDIDLCESSVQRHIGHANLTTEQLRILMESLPGKKISPDEIERTRKTCKPSEQLLKLLSLWRIKNGDQDTLKGLMYALKHLKAYHFPKTVTHSLRKTIRFLHSFTMYRLYQKLFLEMIGNQVQSVKISCL | binds

Target: the molecule itself
Test: homodimerization; non-reducing SDS-PAGE and western blot with anti-OPG antibodies
Experimental: Each resulting muOPG-CT plasmid containing the appropriate truncation was then transfected into human 293 cells, the mutant OPG-Fc fusion protein purified from conditioned media as described above. The biological activity of each protein was assessed the in vitro osteoclast forming assay described in example 11. The conditioned medias were also analysed by non-reducing SDS-PAGE and western blotting using anti-OPG antibodies.

Row | Protein | binding result
3 | muOPG [22-212] (receptor, also called CT212) ETLLPKYLHYDPETGHQLLCDKCAPGTYLKQHCTVRRKTLCVPCPDHSYTDSWHTSDECVYCSPVCKELQSVKQECNRTHNRVCECEEGRYLEIEFCLKHRSCPPGSGVVQAGTPERNTVCKKCPDGFFSGETSSKAPCIKHTNCSTFGLLLIQKGNATHDNCCSGNREATQKCGIDVTLCEEAFFRFAVP | no binding
4 | muOPG [22-200] (receptor, C-terminal truncation ending at threonine 200, expressed in 293 cells; also called CT 200) ETLLPKYLHYDPETGHQLLCDKCAPGTYLKQHCTVRRKTLCVPCPDHSYTDSWHTSDECVYCSPVCKELQSVKQECNRTHNRVCECEEGRYLEIEFCLKHRSCPPGSGVVQAGTPERNTVCKKCPDGFFSGETSSKAPCIKHTNCSTFGLLLIQKGNATHDNCCSGNREATQKCGIDVT | no binding

Target: the molecule itself
Test: homodimerization; non-reducing SDS-PAGE and western blot; the number is the monomer share
Experimental: The biological activity of each protein was assessed the in vitro osteoclast forming assay described in example 11. Conditioned media from each transfectant was analysed by non-reducing SDS-PAGE and western blotting with anti-OPG antibodies.

Row | Protein | percent monomeric [%]
5 | muOPG [22-401] C195S (receptor) ETLLPKYLHYDPETGHQLLCDKCAPGTYLKQHCTVRRKTLCVPCPDHSYTDSWHTSDECVYCSPVCKELQSVKQECNRTHNRVCECEEGRYLEIEFCLKHRSCPPGSGVVQAGTPERNTVCKKCPDGFFSGETSSKAPCIKHTNCSTFGLLLIQKGNATHDNCCSGNREATQKSGIDVTLCEEAFFRFAVPTKIIPNWLSVLVDSLPGTKVNAESVERIKRRHSSQEQTFQLLKLWKHQNRDQEMVKKIIQDIDLCESSVQRHLGHSNLTTEQLLALMESLPGKKISPEEIERTRKTCKSSEQLLKLLSLWRIKNGDQDTLKGLMYALKHLKTSHFPKTVTHSLRKTMRFLHSFTMYRLYQKLFLEMIGNQVQSVKISCL | > 90
6 | muOPG [22-401] C202S (receptor, Expressed in 293 cells from pcDNA3.1-muOPG) ETLLPKYLHYDPETGHQLLCDKCAPGTYLKQHCTVRRKTLCVPCPDHSYTDSWHTSDECVYCSPVCKELQSVKQECNRTHNRVCECEEGRYLEIEFCLKHRSCPPGSGVVQAGTPERNTVCKKCPDGFFSGETSSKAPCIKHTNCSTFGLLLIQKGNATHDNCCSGNREATQKCGIDVTLSEEAFFRFAVPTKIIPNWLSVLVDSLPGTKVNAESVERIKRRHSSQEQTFQLLKLWKHQNRDQEMVKKIIQDIDLCESSVQRHLGHSNLTTEQLLALMESLPGKKISPEEIERTRKTCKSSEQLLKLLSLWRIKNGDQDTLKGLMYALKHLKTSHFPKTVTHSLRKTMRFLHSFTMYRLYQKLFLEMIGNQVQSVKISCL | > 90
7 | muOPG [22-401] C277S (receptor, Expressed in 293 cells from pcDNA3.1-muOPG) ETLLPKYLHYDPETGHQLLCDKCAPGTYLKQHCTVRRKTLCVPCPDHSYTDSWHTSDECVYCSPVCKELQSVKQECNRTHNRVCECEEGRYLEIEFCLKHRSCPPGSGVVQAGTPERNTVCKKCPDGFFSGETSSKAPCIKHTNCSTFGLLLIQKGNATHDNCCSGNREATQKCGIDVTLCEEAFFRFAVPTKIIPNWLSVLVDSLPGTKVNAESVERIKRRHSSQEQTFQLLKLWKHQNRDQEMVKKIIQDIDLSESSVQRHLGHSNLTTEQLLALMESLPGKKISPEEIERTRKTCKSSEQLLKLLSLWRIKNGDQDTLKGLMYALKHLKTSHFPKTVTHSLRKTMRFLHSFTMYRLYQKLFLEMIGNQVQSVKISCL | > 90
8 | muOPG [22-401] C319S (receptor, Expressed in 293 cells from pcDNA3.1-muOPG) ETLLPKYLHYDPETGHQLLCDKCAPGTYLKQHCTVRRKTLCVPCPDHSYTDSWHTSDECVYCSPVCKELQSVKQECNRTHNRVCECEEGRYLEIEFCLKHRSCPPGSGVVQAGTPERNTVCKKCPDGFFSGETSSKAPCIKHTNCSTFGLLLIQKGNATHDNCCSGNREATQKCGIDVTLCEEAFFRFAVPTKIIPNWLSVLVDSLPGTKVNAESVERIKRRHSSQEQTFQLLKLWKHQNRDQEMVKKIIQDIDLCESSVQRHLGHSNLTTEQLLALMESLPGKKISPEEIERTRKTSKSSEQLLKLLSLWRIKNGDQDTLKGLMYALKHLKTSHFPKTVTHSLRKTMRFLHSFTMYRLYQKLFLEMIGNQVQSVKISCL | > 90
9 | muOPG [22-401] C400S (receptor, Expressed in 293 cells from pcDNA3.1-muOPG) ETLLPKYLHYDPETGHQLLCDKCAPGTYLKQHCTVRRKTLCVPCPDHSYTDSWHTSDECVYCSPVCKELQSVKQECNRTHNRVCECEEGRYLEIEFCLKHRSCPPGSGVVQAGTPERNTVCKKCPDGFFSGETSSKAPCIKHTNCSTFGLLLIQKGNATHDNCCSGNREATQKCGIDVTLCEEAFFRFAVPTKIIPNWLSVLVDSLPGTKVNAESVERIKRRHSSQEQTFQLLKLWKHQNRDQEMVKKIIQDIDLCESSVQRHLGHSNLTTEQLLALMESLPGKKISPEEIERTRKTCKSSEQLLKLLSLWRIKNGDQDTLKGLMYALKHLKTSHFPKTVTHSLRKTMRFLHSFTMYRLYQKLFLEMIGNQVQSVKISSL | > 90
